± gives the uncertainty stated by the source.
B1: Zinc finger homeobox protein 4, residues 2562 to 2617; numbered along this chain, Q86UP3 (parent)
chain: RLRTTITPEQLEILYEKYLLDSNPTRKMLDHIAREVGLKKRVVQVWFQNTRARERK

Variants of: B1
Test: abundance fitness (aPCA) (normalised: wild type 0, dead -1); higher = more abundant; growth selection in yeast, the domain comes from the species named
Settings: Homo sapiens

Abundance fitness, by site and new letter:
V43: A -0.462 ± 0.063; P -0.862 ± 0.24; R -0.974 ± 0.072; T -0.553 ± 0.079; S -0.723 ± 0.16; L -0.306 ± 0.083; N -0.829 ± 0.4; I -0.147 ± 0.084; E -0.925 ± 0.12; C -0.505 ± 0.12; K -0.965 ± 0.27; F -0.861 ± 0.28; W -0.78 ± 0.089; G -0.89 ± 0.085; D -0.778 ± 0.22
W46: H -0.878 ± 0.4; L -0.887 ± 0.14; P -0.802 ± 0.088; K -1.03 ± 0.15; D -0.536 ± 0.16; C -0.663 ± 0.18; S -0.91 ± 0.11; T -0.756 ± 0.27; Q -1.05 ± 0.25; V -0.723 ± 0.061; G -0.752 ± 0.066; E -0.549 ± 0.093; M -0.815 ± 0.15; I -0.939 ± 0.15
V42: Y -0.598 ± 0.22; M -0.103 ± 0.077; A -0.197 ± 0.097; E 0.273 ± 0.093; S -0.348 ± 0.059; L -0.126 ± 0.083; C -0.179 ± 0.093; R -0.413 ± 0.068; T -0.187 ± 0.12; K -0.302 ± 0.07; D 0.23 ± 0.066; G -0.533 ± 0.067; H -0.079 ± 0.13; Q -0.038 ± 0.15
R41: A 0.257 ± 0.062; N 0.248 ± 0.1; P 0.246 ± 0.093; H 0.163 ± 0.069; D 0.001 ± 0.19; T 0.213 ± 0.088; I -0.038 ± 0.16; Y 0.037 ± 0.079; E 0.517 ± 0.098; F -0.044 ± 0.089; L 0.115 ± 0.08; S 0.306 ± 0.067; G 0.264 ± 0.053; Q 0.476 ± 0.11; C 0.068 ± 0.075; V 0.013 ± 0.086; W -0.102 ± 0.071
G37: L -0.71 ± 0.073; Y -0.962 ± 0.24; R -0.369 ± 0.081; A -0.258 ± 0.098; I -0.828 ± 0.27; M -0.465 ± 0.056; Q -0.051 ± 0.086; C -0.006 ± 0.096; V -0.643 ± 0.072; N 0.107 ± 0.14; D -0.065 ± 0.094; W -1.1 ± 0.28; P -0.812 ± 0.23; S -0.359 ± 0.082; K -0.169 ± 0.06; H -0.471 ± 0.2
F47: H -0.865 ± 0.44; G -0.913 ± 0.13; D -0.46 ± 0.36; A -0.983 ± 0.17; I -0.765 ± 0.2; E -0.806 ± 0.07
Q44: R -0.191 ± 0.061; M -0.132 ± 0.09; C 0.246 ± 0.11; V -0.156 ± 0.062; S -0.248 ± 0.075; Y 0.202 ± 0.13; E 0.298 ± 0.056; L -0.128 ± 0.06; N -0.131 ± 0.14; D 0.322 ± 0.09; A -0.011 ± 0.092; F -0.416 ± 0.21; I -0.28 ± 0.092; K -0.035 ± 0.094; T -0.053 ± 0.097; W -0.045 ± 0.094; H -0.101 ± 0.094; G -0.031 ± 0.069
K40: C 0.108 ± 0.12; T 0.199 ± 0.074; P 0.162 ± 0.1; G 0.103 ± 0.073; V 0.264 ± 0.052; L 0.264 ± 0.065; A 0.163 ± 0.087; E 0.361 ± 0.085; S 0.218 ± 0.049; Y 0.518 ± 0.12; M 0.243 ± 0.099; D -0.097 ± 0.19; R 0.057 ± 0.086; F 0.15 ± 0.13; H -0.218 ± 0.23; I 0.143 ± 0.12; W -0.002 ± 0.087
K39: H -0.072 ± 0.085; C 0.142 ± 0.12; M -0.405 ± 0.26; I -0.784 ± 0.24; W -0.779 ± 0.17; S 0.278 ± 0.096; A 0.234 ± 0.071; T 0.284 ± 0.091; P 0.196 ± 0.12; Q 0.032 ± 0.14; V -0.01 ± 0.096; L 0.072 ± 0.093; R -0.126 ± 0.06; D 0.11 ± 0.12; G 0.117 ± 0.047; F -0.862 ± 0.39; Y 0.406 ± 0.14; N -0.168 ± 0.29
L38: K -0.254 ± 0.12; S -0.846 ± 0.091; C -0.301 ± 0.12; E -0.488 ± 0.16; Q -0.755 ± 0.13; W -0.884 ± 0.17; M -0.132 ± 0.072; R -0.818 ± 0.07; D -0.718 ± 0.27; I -0.025 ± 0.26; A -0.508 ± 0.073; G -0.915 ± 0.08; P -0.787 ± 0.12; T -0.933 ± 0.27
V45: G -0.198 ± 0.083; Y -0.036 ± 0.2; A -0.243 ± 0.092; W -0.439 ± 0.11; I -0.057 ± 0.14; Q -0.568 ± 0.21; P -0.754 ± 0.2; E 0.535 ± 0.098; H -0.262 ± 0.27; D 0.192 ± 0.067; K -0.249 ± 0.11; T -0.045 ± 0.075; C -0.352 ± 0.13; R -0.402 ± 0.069; F -0.738 ± 0.2; S -0.309 ± 0.1; N -0.384 ± 0.27; L -0.111 ± 0.056
